# Results published in patent publication US20170210787A1 (Janssen / Centocor, published 2017).
# Read-outs that look alike come from different tables or passages of the source.
# How the values were obtained:
# tau 299-369 [1] = target: tau 299-369 (human); experiment: peptide ELISA, 1 ug/mL
# tau 299-369 [2] = target: tau 299-369 (human); experiment: peptide ELISA, 1 ug/mL; remark: listed apart in the source
# tau 299-369 [3] = target: tau 299-369 (human); experiment: ELISA on biotinylated peptide captured on streptavidin plate, IgG titrated [a]
# tau 299-369 [4] = target: tau 299-369 (human); experiment: as above; remark: listed apart in the source
binder,measurement,setting,value
"CBTAU-27.1 (antibody, V domains shown) VH: QVQLVESGPEMRKPGESLKISCKTSGYIFSDYWTAWVRQLPGKGLQWMGIIYSGDSDTRYHPSVQGHVTMSTDSSLTTAYLQWSSLKASDTGIYYCARLDARVDAGWQLDSWGQGTLVTVSS VL: DIQLTQSPDSLAVSLGERATINCKSSQSVFSRDNNKNYLAWYQHKSGQPPKLLFFWASSRESGVSDRFSGSGSGTDFTLTIDNLQAEDVALYYCQHYFNTPHNFGQGTKLEIK",OD450,tau 299-369 [1],1 to 1.5 od
same,OD450,tau 299-369 [2],> 1.5 od
same,EC50 (read off the curve),tau 299-369 [3],~0.1 µg/mL
same,EC50 (read off the curve),tau 299-369 [4],~0.2 µg/mL
